The values below come from PMC3002279, “Polyphosphate Kinase from M. tuberculosis: An Interconnect between the Genetic and Biochemical Role” (PLoS ONE, 2010).

The data set deals with the molecule itself. The data set is described as follows: SEC; […] (50 mM Tris pH 7.5, 150 mM NaCl, 4 mM MgCl2, 10% glycerol) […].

B1: Polyphosphate Kinase (PPK) from M. tuberculosis, recombinant, untagged (enzyme)
chain: MMSNDRKVTEIENSPVTEVRPEEHAWYPDDSALAAPPAATPAAISDQLPSDRYLNRELSWLDFNARVLALAADKSMPLLERAKFLAIFASNLDEFYMVRVAGLKRRDEMGLSVRSADGLTPREQLGRIGEQTQQLASRHARVFLDSVLPALGEEGIYIVTWADLDQAERDRLSTYFNEQVFPVLTPLAVDPAHPFPFVSGLSLNLAVTVRQPEDGTQHFARVKVPDNVDRFVELAAREASEEAAGTEGRTALRFLPMEELIAAFLPVLFPGMEIVEHHAFRITRNADFEVEEDRDEDLLQALERELARRRFGSPVRLEIADDMTESMLELLLRELDVHPGDVIEVPGLLDLSSLWQIYAVDRPTLKDRTFVPATHPAFAERETPKSIFATLREGDVLVHHPYDSFSTSVQRFIEQAAADPNVLAIKQTLYRTSGDSPIVRALIDAAEAGKQVVALVEIKARFDEQANIAWARALEQAGVHVAYGLVGLKTHCKTALVVRREGPTIRRYCHVGTGNYNSKTARLYEDVGLLTAAPDIGADLTDLFNSLTGYSRKLSYRNLLVAPHGIRAGIIDRVEREVAAHRAEGAHNGKGRIRLKMNALVDEQVIDALYRASRAGVRIEVVVRGICALRPGAQGISENIIVRSILGRFLEHSRILHFRAIDEFWIGSADMMHRNLDRRVEVMAQVKNPRLTAQLDELFESALDPCTRCWELGPDGQWTASPQEGHSVRDHQESLMERHRSP
notes: also called M. tu PPK; M.tu PPK
On to B1, for which the “stoichiometry N” value is 4.
